Tests used:
Assay in all cases: purified protein
Format in all cases: biochemical, Bacteroides thetaiotaomicron
Conditions in all cases: 5 mM NAD+, 10 mM MOPS, 37 °C, 0.2 nM enzyme
[1] = substrate: C[C@H](CCC(=O)O)[C@H]1CC[C@H]2[C@@H]3[C@H](O)C[C@@H]4C[C@H](O)CC[C@]4(C)[C@H]3CC[C@]12C
[2] = substrate: C[C@H](CCC(=O)O)[C@H]1CC[C@H]2[C@@H]3[C@H](O)C[C@@H]4C[C@H](O)CC[C@]4(C)[C@H]3C[C@H](O)[C@]12C
[3] = substrate: C[C@H](CCC(=O)NCC(=O)O)[C@H]1CC[C@H]2[C@@H]3[C@H](O)C[C@@H]4C[C@H](O)CC[C@]4(C)[C@H]3CC[C@]12C
[4] = substrate: C[C@H](CCC(=O)NCCS(=O)(=O)O)[C@H]1CC[C@H]2[C@@H]3[C@H](O)C[C@@H]4C[C@H](O)CC[C@]4(C)[C@H]3CC[C@]12C

B1: HSDHa (BT_1911), 7α-hydroxysteroid dehydrogenase (Bacteroides thetaiotaomicron VPI-5482) (protein)
chain: MKRFENKVVVITGAAGGIGEATTRRIVSEGGKVVIADLSQERADKLAAELTQAGADVRPIYFSATELQSCKELVDFAMKEYGQIDVLINNVGGTDPKRDLNIEKLDIDYFDEVFHLNLCCTMYLSQQVIPIMTTHGGGNIVNVASISGLTADANGTLYGASKAGVINLTKYIATQMGKKNIRCNAVAPGLVLTPAALDNLNEEVRNIFLGQCATPYLGEPEDVAATIAFLASNDARYITGQTIVVDGGLTIHNPTVELS
notes: full-length codon-optimized gene, pETite C-His, C-terminal hexahistidine tag, E. coli Rosetta (DE3) pLysS, cobalt resin purified
With B1 the Km [1] was 203.4 ± 24.3 µM, the kcat [1] was 4580 ± 375 s⁻¹ and the Km [2] was 649.2 ± 167.6 µM. It also gave a kcat [2] of 4070 ± 195 s⁻¹, a Km [3] of 342.2 ± 104.1 µM and a kcat [3] of 4090 ± 292 s⁻¹. It also gave a Km [4] of 301.2 ± 60.4 µM and a kcat [4] of 4520 ± 681 s⁻¹.

Source: PMC10783122, “Loss of Bacteroides thetaiotaomicron bile acid-altering enzymes impacts bacterial fitness and the global metabolic transcriptome” (Microbiology Spectrum, 2023)
